Test results as given in PMC11971343, “Role of charges in a dynamic disordered complex between an IDP and a folded domain” (Nature Communications, 2025).
Positions count from the first letter of the chain named.

B1: H1-GD variant 6K1 (domain or fragment, human)
chain: DHPKYSDMIVAAIQAEKNRAGSSRQSIQQYIKSHYKVGENADSQIKLSIQRLVTTGVLQQTQGVGASGSFRLAK
notes: net charge +5; source: produced as previously described [16,34,52,78]
B2: H1-GD variant 6K2 (domain or fragment, human)
chain: B1 chain with K17Q, Q29K, Q59K, K74Q
notes: as for B1
B3: RST domain of the plant protein RCD1 (domain or fragment)
chain: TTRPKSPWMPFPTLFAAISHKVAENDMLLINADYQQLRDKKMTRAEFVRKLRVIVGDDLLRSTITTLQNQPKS
notes: folded RST domain of the plant protein RCD1, net charge +5; also called RCD1-RST; source: produced as previously described [16,34,52,78]
B4: prothymosin α (ProTα), isoform 2 (natural protein, UniProt P06454-2 1-110, looked up)
chain: MSDAAVDTSSEITTKDLKEKKEVVEEAENGRDAPANGNANEENGEQEADNEVDEEEEEGGEEEEEEEEGDGEEEDGDEDEEAESATGKRAAEDDEDDDVDTKKQKTDEDD
notes: prothymosin α, isoform 2, used for NMR (unlabelled, 15N- or 13C,15N-labelled); BMRB 27215 holds its assignments; Isotope-labelled and unlabelled forms are treated as one molecule; also called 15N-ProTα; source: produced as previously described [16,34,52,78]

Assays:
Conditions in all cases: both partners purified
[1] = molecular target: B4; test: NMR titration; 1H-15N HSQC of 15N-ProTα (50 μM) with 4x molar ratio of GD-WT or a GD variant; sum of CSPs normalised to that with GD-WT at the same ratio and batch; 283 K, TBSK buffer, pH 7.4
[2] = molecular target: B4; test: NMR titration; 1H-15N HSQC of 15N-ProTα (28 μM) with GD up to 8x molar ratio, or 8x RST or CaM; 15N-ProTα (37 μM) with 2x full-length H1; 283 K, TBSK buffer (10 mM Tris, 155 mM KCl, 0.1 mM EDTA), pH 7.4
[3] = molecular target: T1, wild-type human histone H1.0, full length (produced recombinantly, for NMR) (human, UniProt P07305 1-194); test: as above
T1 construct: human linker histone H1.0, wild type, full length; also called full-length H1; linker histone H1.0; source: produced recombinantly [16]
T1 sequence (P07305 whole entry): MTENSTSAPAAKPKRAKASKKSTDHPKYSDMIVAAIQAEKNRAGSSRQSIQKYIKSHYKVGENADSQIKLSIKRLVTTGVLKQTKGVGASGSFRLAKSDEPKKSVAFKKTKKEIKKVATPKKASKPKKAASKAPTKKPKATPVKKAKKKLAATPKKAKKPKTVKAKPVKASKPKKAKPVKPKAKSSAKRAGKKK

Relative CSPsum [1]	Binder	further results
0.11	B1	
0.13	B2	
	B3	binding result [2]: binds
	B4	binding result [3]: binds
